The values below come from patent US20120003180A1 (TEXAS A AND M UNIVERSITY SYSTEM, published 2012).

A word on the koff: it is the first-order rate constant of dissociation. A higher koff goes with a short-lived complex. A word on the Kd: it is a measure of binding affinity in units of concentration. Lower therefore signals higher affinity.

Assay [1] deals with T1, α5β1 integrin protein, covalently immobilised on the optical biosensor cuvette.
T1 construct: The methods call the immobilised protein 'the α5β1 protein' and also 'immobilized α5'; The results speak of α5β1 integrin; also called α5β1 protein; immobilized α5 integrin
In words: optical biosensor (IAsys), α5β1 immobilised, DV free in solution. As to the method: (§1) Binding assays were carried out using an optical biosensor (IAsys; Affinity Sensors, UK) as described¹⁰⁸. In brief, to covalently bind the α5β1 protein, designated as an acceptor, onto the surfaces of a sensor, carboxylate groups present on the surface were activated by injection of a 1:1 mixture of 0.1 M N-hydroxysuccinimide and 0.4 M N-Ethyl-3-(3-dimethylaminopropyl) carbodiimide (Pierce). The acceptor dissolved in phosphate buffered saline (PBS) was then allowed to bind to the activated surface until a response plateau was reached. The residual active groups were blocked by an injection of 100 μL of 1 M Tris-HCl (pH 8.5).
(§2) The binding of DV to α5β1 was also investigated. DV's DGR sequence was mutated to AGR (D3904A) to determine whether this could disrupt DV binding to α5β1 as measured with optical biosensor (FIG. 18A).

Assay [2] addresses T1, α5β1 integrin protein, covalently …. In words: optical biosensor (IAsys), α5β1 immobilised, DV free in solution; Kd from Koff/Kon. As to the method: as §1, §2

B1: Human perlecan Domain V (DV), recombinant, with C-terminal 6×His tag (ligand)
chain: EIKITFRPDSADGMLLYNGQKRVPGSPTNLANRQPDFISFGLVGGRPEFRFDAGSGMATIRHPTPLALGHFHTVTLLRSLTQGSLIVGDLAPVNGTSQGKFQGLDLNEELYLGGYPDYGAIPKAGLSSGFIGCVRELRIQGEEIVFHDLNLTAHGISHCPTCRDRPCQNGGQCHDSESSSYVCVCPAGFTGSRCEHSQALHCHPEACGPDATCVNRPDGRGYTCRCHLGRSGLRCEEGVTVTTPSLSGAGSYLALPALTNTHHELRLDVEFKPLAPDGVLLFSGGKSGPVEDFVSLAMVGGHLEFRYELGSGLAVLRSAEPLALGRWHRVSAERLNKDGSLRVNGGRPVLRSSPGKSQGLNLHTLLYLGGVEPSVPLSPATNMSAHFRGCVGEVSVNGKRLDLTYSFLGSQGIGQCYDSSPCERQPCQHGATCMPAGEYEFQCLCRDGFKGDLCEHEENPCQLREPCLHGGTCQGTRCLCLPGFSGPRCQQGSGHGIAESDWHLEGSGGNDAPGQYGAYFHDDGFLAFPGHVFSRSLPEVPETIELEVRTSTASGLLLWQGVEVGEAGQGKDFISLGLQDGHLVFRYQLGSGEARLVSEDPINDGEWHRVTALREGRRGSIQVDGEELVSGRSPGPNVAVNAKGSVYIGGAPDVATLTGGRFSSGITGCVKNLVLHSARPGAPPPQPLDLQHRAQAGANTRPCPSHHHHHH
notes: Cloned from HUVEC cDNA into pSecTag2A or pCepPu, secreted from 293 cells and purified on Ni beads; also called endorepellin; rhDV
In the case of B1, the koff in assay [1] was found to be 0.72 s⁻¹. The equilibrium dissociation constant (Kd) in assay [2] was found to be 160 nM.
